Results taken from article PMC7614608.

Legend:
[1] = test system: ALYREFN (human); experiment: filter binding; details: Filter binding: 150 mM KCl, 20 mM HEPES pH 7.9, 2 mM MgCl2, 5% glycerol, 0.5 mM TCEP, +/-1 mM ATPgS, 50 nM RNA, 20 C, 45 min; EJC assembly for TREX-EJC-RNA: …
[2] = test system: UAP56 (human); experiment: filter binding; details: Filter binding: 150 mM KCl, 20 mM HEPES pH 7.9, 2 mM MgCl2, 5% glycerol, 0.5 mM TCEP, +/-1 mM ATPgS, 50 nM RNA, 20 C, 45 min; EJC assembly for TREX-EJC-RNA: …
[3] = biological target: ALYREF UBM (Homo sapiens) (UniProt Q86V81); details: cited from earlier work

UAP56, sequence (Q13838 2-428): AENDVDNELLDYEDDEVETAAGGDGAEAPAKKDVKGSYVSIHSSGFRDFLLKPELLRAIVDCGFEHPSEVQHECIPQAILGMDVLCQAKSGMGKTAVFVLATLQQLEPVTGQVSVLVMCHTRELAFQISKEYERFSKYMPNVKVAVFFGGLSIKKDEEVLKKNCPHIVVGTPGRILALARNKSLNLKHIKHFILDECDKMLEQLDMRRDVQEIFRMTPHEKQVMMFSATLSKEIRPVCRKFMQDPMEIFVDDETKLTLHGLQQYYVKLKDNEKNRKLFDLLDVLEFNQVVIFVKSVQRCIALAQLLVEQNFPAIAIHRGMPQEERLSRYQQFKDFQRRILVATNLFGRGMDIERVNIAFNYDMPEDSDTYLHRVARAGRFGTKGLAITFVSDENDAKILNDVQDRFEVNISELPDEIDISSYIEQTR

Row | Substance | Kd [1] | Kd [2] | Kd [3]
1 | 400-nt AdML RNA | 600 nM | 900 nM | 
2 | UAP56 (from UniProt Q13838) |  |  | 2900 nM
